The text below walks through data of paper doi:10.1101/2020.04.03.024018.

The term Kd denotes the concentration at which binding is half-saturated. The low end stands for a tighter complex, the high end for a looser complex. Usually residence time stands for the mean lifetime of the complex, commonly the reciprocal of the off-rate.

Read-outs that look alike come from different tables or passages of the source.

What all share (assay): single-molecule force spectroscopy
The target of test [1] is C5aR complexed with the PMX53 antagonist (free PMX53 injected) (human) (UniProt P21730).
Test [2] deals with C5a anaphylatoxin chemotactic receptor 1 (C5aR), wild type (human) (UniProt P21730).
For test [3], the target named is C5aR D282A mutant (human) (UniProt P21730).
For test [4], the target named is C5aR R175V/Y258V double mutant (human) (UniProt P21730).
Test [5] concerns the target C5aR complexed with the PMX53 antagonist (free PMX53 injected) (human) (UniProt P21730). This is another data set of the same source.

C5aR complexed with the PMX53 antagonist (free PMX53 injected) (human), sequence (P21730 whole entry, looked up, one chain of several): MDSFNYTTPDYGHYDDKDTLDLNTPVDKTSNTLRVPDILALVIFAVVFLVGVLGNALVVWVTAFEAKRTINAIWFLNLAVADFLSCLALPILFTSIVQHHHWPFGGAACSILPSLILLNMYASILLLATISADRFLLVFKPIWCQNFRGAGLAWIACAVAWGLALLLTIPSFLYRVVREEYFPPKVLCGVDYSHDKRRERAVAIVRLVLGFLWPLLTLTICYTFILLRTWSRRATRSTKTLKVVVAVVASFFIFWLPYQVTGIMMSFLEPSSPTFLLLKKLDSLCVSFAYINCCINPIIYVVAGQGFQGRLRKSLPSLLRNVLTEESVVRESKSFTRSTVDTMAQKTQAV
complement C5a anaphylatoxin, sequence (P01031 678-751): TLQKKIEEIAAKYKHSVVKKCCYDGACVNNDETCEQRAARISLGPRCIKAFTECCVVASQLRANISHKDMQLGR
C5a anaphylatoxin chemotactic receptor 1 (C5aR), wild type (human), sequence (P21730 whole entry): as the sequence (P21730 whole entry, looked up, one chain of several) above
C5aR R175V/Y258V double mutant (human), sequence (P21730 whole entry R175V/Y258V): as the sequence (P21730 whole entry, looked up, one chain of several) above, with R175V, Y258V counted along it
C5aR D282A mutant (human), sequence (P21730 whole entry D282A): as the sequence (P21730 whole entry, looked up, one chain of several) above, with D282A counted along it

The substance C5a des-Arg (ligand) displayed a residence time τ0.5 in test [1] of 0.5 ms.
In the case of “Cys-Gly3-Phe-[{Orn}-Pro-{D-Cha}-Trp-Arg] (PMX53-Gly3-Cys), PMX53 antagonist as tethered to the AFM tip (peptide)”, in test [2], the dissociation constant (Kd) turned out to be 4.7 nM and the equilibrium force Feq was determined as 50 pN. The same substance displayed a residence time in test [3] of 0.1 ms. Further, the reduction in residence time against C5aR WT in test [4] was found to be 40%.
In test [1], “complement C5a anaphylatoxin (from UniProt P01031 678-751) (ligand)” registered a Kd of 800 mM, an equilibrium force Feq of 23 pN and a residence time τ0.5 of 0.2 ms. In test [5], this substance yielded an equilibrium force Feq of 23 pN.
